# From patent US20220202899A1, “COMPOSITION FOR PREVENTION OR TREATMENT OF HAIR LOSS INCLUDING HAPLN1” (HAPLNSCIENCE INC., priority 2019, published 2022)
# Assays:
# Type in all cases: cell-based
# TβRII [1] = assay: TβRII protein in human hair germinal matrix cells treated with HAPLN1 and/or HA, then TGF-β2 (Western blotting)
# Procedure: (§1) Human hair germinal matrix cells were dispensed into a poly-D-lysine 6-well plate at a concentration of 5.0×10^4 per well and cultured for 24 hours. After 24 hours, the medium was removed and replaced with a new serum-free medium. HAPLN1 was treated with 25 ng/mL, HA was treated with 25 μg/mL, and after 1 hour, TGF-β2 (2 ng/mL) was treated. After 23 hours, cells were collected, a lysis buffer (25 mM Tris-HCl, 1 mM EDTA, 0.1% Triton-X100, phosphatase inhibitor, and protease inhibitor) was added, and all the cells were broken through sonication. TβRI and TβRII in the sample were measured using Western blotting. The optical density of TβRII was compared to that of GAPDH using a densitometer.
# TβRI = TβRI protein in human hair germinal matrix cells treated with HAPLN1 and/or HA, then TGF-β2 (Western blotting); conditions: HAPLN1 25 ng/mL; TGF-β2 2 ng/mL
# Procedure: as §1
# TβRII [2] = assay: TβRII protein after exogenous HAPLN1 and/or HA in endogenous HAPLN1-deficient human hair germinal matrix cells; conditions: after HAPLN1 siRNA; HAPLN1 25 ng/mL and/or HA 25 μg/mL; TGF-β2 2 ng/mL, 23 hours
# Procedure: The human hair germinal matrix cells were dispensed into a poly-D-lysine 6-well plate at a concentration of 5.0×10^4 per well and cultured for 24 hours. After 24 hours, the medium was removed and replaced with a low-serum medium. HAPLN1 siRNA and scrambled siRNA were added at a concentration of 25 pmol per well and incubated for 24 hours. After the siRNA and the medium were all removed, the medium was replaced with a serum-free medium having HAPLN1 (25 ng/mL) or HA (25 μg/mL) added thereto, and cultured for 1 hour. TGF-β2 (2 ng/mL) was treated and incubated for 23 hours. After collecting cells, a lysis buffer (25 mM Tris-HCl, 1 mM EDTA, 0.1% Triton-X100, phosphatase inhibitor, and protease inhibitor) was added, and all the cells were broken through sonication. TβRII in the sample was measured using Western blotting. The optical density of TβRII was compared to that of GAPDH using a densitometer.
# TβRII [3] = assay: TβRII protein in human hair germinal matrix cells deficient in endogenous HA (4-MU); conditions: 4-MU-treated cells; HAPLN1 25 ng/mL; TGF-β2 2 ng/mL
# Procedure: 4-MU (4-methylumbelliferone) is an inhibitor of HA-producing hyaluronan synthase 2 (HAS2), which produces HA. In order to confirm the effect of HA produced in cells, HA production in cells was inhibited using 4-MU.
# The human hair germinal matrix cells, in which the endogenous HA was inhibited by treating 4-MU, were dispensed into a poly-D-lysine 6-well plate at a concentration of 5.0×10^4 per well and cultured for 24 hours. After 24 hours, the medium was removed and replaced with a new serum-free medium. HAPLN1 was treated with 25 ng/mL, and after 1 hour, TGF-β2 (2 ng/mL) was treated. After 23 hours, cells were collected, a lysis buffer (25 mM Tris-HCl, 1 mM EDTA, 0.1% Triton-X100, phosphatase inhibitor, and protease inhibitor) was added, and all the cells were broken through sonication. HAS2 and TβRII in the sample were measured using Western blotting. The optical density of each of HAS2 and TβRII was compared to that of GAPDH using a densitometer.
# p-ERK1/2 = p-ERK1/2 in human hair germinal matrix cells stimulated with TGF-β2 (Western blotting); conditions: TGF-β2 2 ng/mL, 1 hour
# Procedure: (§2) Human hair germinal matrix cells were dispensed into a poly-D-lysine 6-well plate at a concentration of 5.0×10^4 per well and cultured for 24 hours. After 24 hours, the medium was removed and replaced with a new serum-free medium. HAPLN1 was treated with 25 ng/mL and HA with 25 μg/mL, incubated for 23 hours, and then stimulated with TGF-β2 (2 ng/mL) for 1 hour. After collecting cells, a lysis buffer (25 mM Tris-HCl, 1 mM EDTA, 0.1% Triton-X100, phosphatase inhibitor, and protease inhibitor) was added, and all the cells were broken through sonication. p-ERK1/2, p-Smad2, p-MEK1/2, and p-c-Raf in the sample were measured using Western blotting. Optical densities of p-ERK1/2, p-Smad2, p-MEK1/2, and p-c-Raf were compared to those of ERK1/2, Smad2/3, MEK1, and c-Raf using a densitometer. Here, ERK1/2, Smad2/3, MEK1, and c-Raf were used as loading controls.
# p-MEK1/2 = p-MEK1/2 in human hair germinal matrix cells stimulated with TGF-β2 (Western blotting); conditions: HAPLN1 25 ng/mL and/or HA 25 μg/mL; TGF-β2 2 ng/mL, 1 hour
# Procedure: as §2
# [4] = test system: human dermal papilla cells; assay: Dermal papilla cell proliferating effect, CCK-8 (Example 13); conditions: proteins 25 ng/ml, minoxidil 10 μM; TGF-β2 (2 ng/ml) present or absent
# Procedure: Human dermal papilla cells were cultured in a 37° C., 5% CO2 incubator using a dermal papilla cell proliferation medium (Promocell). When the cells were about 90% full, the cells were detached with a 0.05% Trypsin/EDTA solution and then centrifuged at 1000 rpm for 3 minutes to recover only the cells. The cells were dispensed into a 96-well plate at 2.0×10^3 per well, cultured for 24 hours, and HAPLN1, CX3CL1 and CDON were diluted to have a final concentration of 25 ng/ml in serum-free medium. After removing the existing culture medium, 200 μl of diluted HAPLN1, CX3CL1, and CDON were dispensed into each well and cultured for 1 hour. To reduce an experimental variation, 3 wells per group were treated (triplication). In addition, minoxidil, which is known to proliferate dermal papilla cells, was treated with 10 μM and set as a positive control.
# In the same manner as described above, HAPLN1 (25 ng/ml), CX3CL1 (25 ng/ml), CDON (25 ng/ml) or minoxidil (10 μM), and human recombinant TGF-β2 were diluted to a final concentration of 2 ng/ml, and the medium of the group containing TGF-β2 was replaced by 200 μl. To reduce an experimental variation, 3 wells per group were treated (triplication).
# After incubation for 23 hours, the plate was removed from the incubator, and 20 μl of CCK-8 (WST-8) solution was added to the plate containing the medium and the reagent per 200 μl of the medium for the reaction to be carried out at 37° C. for 1 hour.
molecule,measurement,setting,value
"hyaluronan and proteoglycan link protein 1 (protein, UniProt P10915 16-354, looked up, extracellular matrix protein found in cartilage; stabilizes aggregates of hyaluronic acid and proteoglycans) Hyaluronan and proteoglycan …: DHLSDNYTLDHDRAIHIQAENGPHLLVEAEQAKVFSHRGGNVTLPCKFYRDPTAFGSGIHKIRIKWTKLTSDYLKEVDVFVSMGYHKKTYGGYQGRVFLKGGSDSDASLVITDLTLEDYGRYKCEVIEGLEDDTVVVALDLQGVVFPYFPRLGRYNLNFHEAQQACLDQDAVIASFDQLYDAWRGGLDWCNAGWLSDGSVQYPITKPREPCGGQNTVPGVRNYGFWDKDKSRYDVFCFTSNFNGRFYYLIHPTKLTYDEAVQACLNDGAQIAKVGQIFAAWKILGYDRCDAGWLADGSVRYPISRPRRRCSPTEAAVRFVGFPDKKHKLYGVYCFRAYN",TβRII protein (optical density compared to GAPDH),"TβRII [1]; HAPLN1 25 ng/mL or HA 25 μg/mL alone, TGF-β2 2 ng/mL after 1 hour, 23 hours",significantly increased
same,"TβRII protein, HAPLN1 treated together with HA","TβRII [1]; HAPLN1 25 ng/mL with HA 25 μg/mL, TGF-β2 2 ng/mL",further enhanced the increase of TβRII by HA
same,concentration of TβRI,TβRI,no change
same,TβRII protein in endogenous HAPLN1-deficient cells,TβRII [2],recovered
same,TβRII level,TβRII [3],recovered
same,ERK1/2 signaling (p-ERK1/2 compared to ERK1/2),"p-ERK1/2; HAPLN1 25 ng/mL and/or HA 25 μg/mL, 23 hours",activated
same,"ERK1/2 signaling, HAPLN1 treated together with HA",p-ERK1/2; HAPLN1 25 ng/mL with HA 25 μg/mL,enhanced the activation of ERK1/2 signaling of HA
same,MEK1/2 activity (p-MEK1/2 compared to MEK1),p-MEK1/2,increased activities
same,dermal papilla cell proliferation (absorbance at 450 nm),[4],did not proliferate dermal papilla cells or rather inhibited proliferation thereof
